Values quoted from earlier work, collected in PMC7905041.

Target: CD40 ECD (Homo sapiens) (UniProt P25942)
Test: SPR

## CD40 CRD1/PLAD (from UniProt P25942)
  Kd: 600 nM
